Consider eight molecules from patent US20110129816A1 (NATIONAL UNIVERSITY CORPORATION UNIVERSITY OF TOYAMA, published 2011).

Assay [1] concerns the target nucleoprotein of influenza virus A/Panama/2007/99 (H3N2) (influenza A virus A/Panama/2007/99 (H3N2)). The assay is described as follows: sandwich CLIA, acridinium label M322211, S/N>=2.1.
Assay [2] addresses nucleoprotein of influenza virus A/Beijing/262/95 (H1N1) (influenza A virus A/Beijing/262/95 (H1N1)). In words: sandwich CLIA, acridinium label M322211, S/N>=2.1.
Assay [3] has as its target T1, nucleoprotein of influenza virus B/Panama/45/90 (influenza B virus B/Panama/45/90, UniProt O36433 1-560).
T1 sequence: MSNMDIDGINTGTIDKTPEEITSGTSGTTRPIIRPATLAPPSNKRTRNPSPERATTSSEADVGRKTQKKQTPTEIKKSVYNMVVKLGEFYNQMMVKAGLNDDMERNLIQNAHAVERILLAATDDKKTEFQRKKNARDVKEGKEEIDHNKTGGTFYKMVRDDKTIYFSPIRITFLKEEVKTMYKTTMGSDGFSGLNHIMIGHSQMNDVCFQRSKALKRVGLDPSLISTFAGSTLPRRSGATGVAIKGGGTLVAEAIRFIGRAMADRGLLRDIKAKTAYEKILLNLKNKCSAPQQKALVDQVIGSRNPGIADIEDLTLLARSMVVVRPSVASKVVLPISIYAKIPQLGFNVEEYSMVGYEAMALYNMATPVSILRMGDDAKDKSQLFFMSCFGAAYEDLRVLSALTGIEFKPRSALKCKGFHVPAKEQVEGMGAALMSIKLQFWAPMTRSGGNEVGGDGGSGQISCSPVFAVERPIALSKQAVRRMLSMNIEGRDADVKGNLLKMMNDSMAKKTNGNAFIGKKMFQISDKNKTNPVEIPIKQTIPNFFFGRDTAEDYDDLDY
In words: same-clone sandwich CLIA.

Assay [4] concerns the target T2, nucleoprotein of influenza virus B/Ann Arbor/1/86 (viral strain) (influenza B virus B/Ann Arbor/1/86, UniProt P11102 1-560).
T2 sequence: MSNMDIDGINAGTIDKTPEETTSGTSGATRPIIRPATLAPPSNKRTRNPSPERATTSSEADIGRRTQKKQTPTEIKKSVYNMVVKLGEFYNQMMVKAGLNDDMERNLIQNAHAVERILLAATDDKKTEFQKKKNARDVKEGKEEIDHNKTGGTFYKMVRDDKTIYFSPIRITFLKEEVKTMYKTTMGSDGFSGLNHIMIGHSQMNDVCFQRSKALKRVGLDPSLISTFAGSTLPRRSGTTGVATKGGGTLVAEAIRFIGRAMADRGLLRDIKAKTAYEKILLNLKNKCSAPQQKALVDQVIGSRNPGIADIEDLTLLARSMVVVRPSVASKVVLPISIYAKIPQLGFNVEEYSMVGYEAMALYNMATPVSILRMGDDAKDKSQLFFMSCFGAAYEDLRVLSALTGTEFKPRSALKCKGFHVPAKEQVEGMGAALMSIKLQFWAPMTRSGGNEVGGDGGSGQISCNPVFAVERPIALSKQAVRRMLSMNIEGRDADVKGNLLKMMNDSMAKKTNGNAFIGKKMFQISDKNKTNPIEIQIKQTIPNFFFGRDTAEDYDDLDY
The assay is described as follows: same-clone sandwich CLIA.

Assay [5] addresses T3, nucleoprotein of influenza virus B/Singapore/222/79 (influenza B virus B/Singapore/222/79, UniProt P04666 1-560).
T3 sequence: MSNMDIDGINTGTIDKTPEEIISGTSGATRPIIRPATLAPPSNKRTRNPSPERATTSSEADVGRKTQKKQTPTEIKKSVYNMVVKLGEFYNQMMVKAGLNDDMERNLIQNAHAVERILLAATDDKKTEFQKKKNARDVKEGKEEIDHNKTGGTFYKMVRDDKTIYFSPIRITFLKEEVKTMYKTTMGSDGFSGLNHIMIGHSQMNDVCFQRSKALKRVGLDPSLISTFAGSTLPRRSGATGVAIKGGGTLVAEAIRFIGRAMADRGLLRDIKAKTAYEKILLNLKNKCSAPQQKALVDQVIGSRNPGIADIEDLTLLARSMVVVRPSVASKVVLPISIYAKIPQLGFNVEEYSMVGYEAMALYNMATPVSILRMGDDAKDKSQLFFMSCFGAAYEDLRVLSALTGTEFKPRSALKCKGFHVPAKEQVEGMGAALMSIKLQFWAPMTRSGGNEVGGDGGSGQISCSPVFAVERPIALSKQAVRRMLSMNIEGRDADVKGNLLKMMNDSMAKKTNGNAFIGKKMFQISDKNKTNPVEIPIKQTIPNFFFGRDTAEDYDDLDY
The assay is described as follows: same-clone sandwich CLIA.

Assay [6] has as its target nucleoprotein of influenza virus A/Panama/2007/99 (H3N2) (influenza A virus A/Panama/2007/99 (H3N2)). In words: sandwich CLIA, acridinium label 23G285, S/N>=2.1.
Assay [7] concerns the target nucleoprotein of influenza virus A/Beijing/262/95 (H1N1) (influenza A virus A/Beijing/262/95 (H1N1)). The assay is described as follows: sandwich CLIA, acridinium label 23G285, S/N>=2.1.
The target is the same in assay [8]. In words: SPR (Biacore 2000), antibody fixed directly on CM5, virus 10 µg/mL.
The target in assay [9] is nucleoprotein of influenza virus B/Victoria/504/00 (influenza B virus B/Victoria/504/00). In words: SPR (Biacore 2000), antibody captured by anti-IgG.
The target is the same in assay [10]. The assay is described as follows: sandwich CLIA, acridinium label M2110171, S/N>=2.1.
For assay [11] the target is unchanged. In words: sandwich CLIA, acridinium label 23G327, S/N>=2.1.
Assay [12] addresses recombinant influenza A virus nucleoprotein (influenza A virus A/Puerto Rico/8/34, UniProt P03466 1-498). In words: ELISA on coated recombinant nucleoprotein, culture supernatant. (ELISA stands for enzyme-linked immunosorbent assay.)
Assay [13] has as its target T1, nucleoprotein of influenza virus …. In words: same-clone sandwich CLIA. The source holds these as a separate data set.
Assay [14] concerns the target T2, nucleoprotein of influenza virus B/Ann …. In words: same-clone sandwich CLIA. This is another data set of the same source.
Assay [15] concerns the target T3, nucleoprotein of influenza virus …. In words: same-clone sandwich CLIA. The source holds these as a separate data set.

Where two headings read alike, the source gives them in different places.

For the molecule “mouse anti-influenza A virus nucleoprotein monoclonal antibody ATCC HB-65”, the detection sensitivity in [1] and in assay [2] was 50 ng/mL each time.

B1: human anti-influenza A virus nucleoprotein monoclonal antibody 23G447 (antibody, V domains shown)
VH: QVQLQESGPGLVKPSQTLSLTCSVSGGSISNPDHYWNWIRQPPGKGLEWIGYIYYTGRTWYSPSLKSRVSLSVDTSKSQFSLNVDSVIAADTAVYYCARSHVWFGELYWGQGALVTVSS
VL: QSVLTQPPSVSAAPGQKVTISCSGRSSNVGDNYVSWYQQFPGTAPKLLIYDNTKRPSGIPDRFSGSKSGTSATLGITGLQTGDEAAYYCATWDSVLSAGVFGGGTKLTVL
notes: also called 23G447 antibody
In the case of B1, the binding result in [3], in assay [4] and in [5] was “no binding (tested: S/N<2.1)” in each case.

B2: human anti-influenza A virus nucleoprotein monoclonal antibody 23G268 (antibody, V domains shown)
VH: QVQLVQSGAVVKKPGDSVKVSCKASGYTFTTYWMHWVRQAPGQGPEWMGIVNPTGGTVMYAKKFQGRVIMTRDTSTTTVFLQLNGLESEDTAIYYCARDLGPARVDFDWLSTFVSWGQGTLVTVSS
VL: DIQMTQSPSSLSASVGDRVIITCRASQGITRHLNWYQQKSGKAPKLLIYDASSLQSGVPSRFSGSGSGADFTLTISSVQPEDFATYYCQQSYSNPPTFGPGTKVDIKR
notes: also called 23G268 antibody
Consider B2, for which the binding result in assay [3], in [4] and in [5] was “no binding (tested: S/N<2.1)” throughout. In addition, the detection sensitivity in [6] and in [7] was 6.25 ng/mL throughout.

B3: human anti-influenza A virus nucleoprotein monoclonal antibody 23G272 (antibody, V domains shown)
VH: QVQLVQSGAEVKKPGSSVKVSCKATGDTFSSYSISWVRQAPGQGLEWMGRVTPSFGISLYAQKFQGRVTITADRSSSTAYMELNNLTSDDTAVYYCAAGGLVVVVANHWGQGTLVTVSS
VL: EIVLTQSPATLSASVGDRVTITCRASQDITSSLGWYQQRAGEAPKLLLFAASRLESGVPSRFSGSGSGTEYTLTISNLQPEDFATYYCLHYFGSRPWTFGQGTKVEIKR
notes: also called 23G272 antibody
In the case of B3, the binding result in assay [3], in [4] and in assay [5] was “no binding (tested: S/N<2.1)” each time. Also, in assay [8], the amount of bound antigens relative to HB-65 worked out at 10 fold.

B4: human anti-influenza B virus nucleoprotein monoclonal antibody 23G327 (antibody, V domains shown)
VH: QVQLVQSGAEVKRPGASVKVSCKASGYNLIDFYVNWVRQVPGQGLEWMGYINPDSGGAHYEGKFQGRVIMTRDTSINTAYMELPSLTSDDTAVYFCARGASSGLLTYYYGLDVWGEGTTVIVSS
VL: DIQMTQSPSSLSASIGDRVTITCRASPGINSYLAWYQHKPGKAPKLLIYAASTLQSGVPSRFSGSGSGTDFTLTISSLQPEDVATYYCQKYNSAPWTFGPGTKVEIK
notes: also called 23G327 antibody
On to B4, for which the reactivity (bound antigen per bound antibody) relative to 41027 in assay [9] was 2 fold. This molecule displayed a reactivity (bound antigen per bound antibody) relative to M2110171 in assay [9] of 1.2 fold. In assay [9], this molecule yielded a reactivity (bound antigen per bound antibody) relative to antibody 2/3 of 0.8 fold. The detection sensitivity in assay [10] was 31.3 ng/mL; in assay [11], 125 ng/mL. Moreover, the binding result was “no binding” in assay [12], “binds” in assay [13], “binds” in [14] and “binds” in [15].

B5: human anti-influenza A virus nucleoprotein monoclonal antibody 23G285 (antibody, V domains shown)
VH: QVQLVQSGGGVVQPGRSLRLSCAASGFTFSRYGMHWVRQAPGKGLEWVAVILYEGINKDYADSVKGRFTISRDNSKNTLYLQMNSLRAEDTAVYYCARDRELRLDYWGQGTLVTVSS
VL: QSVLTQPPSVSGAPGQRVTFSCTGSSSNIGAGYDVNWYQQLPGTAPKVLIYGNTNRPSGVPDRFSASKSGTSASLAITGLQAEDEADYYCQSYDSSLRGYVFGTGTKVSVL
notes: also called 23G285 antibody
Regarding B5, the binding result in assay [3], in assay [4] and in assay [5] was “no binding (tested: S/N<2.1)” throughout.

B6: human anti-influenza A virus nucleoprotein monoclonal antibody 23G494 (antibody, V domains shown)
VH: QVQLVQSGGGLVKPGGSLRLSCAGSGFSFSDYYMTWIRQAPGKGLEWVSSINSGSTVTNYADSVQGRFTISRDKNSVYLQMNSLRTEDTAVYYCARDFGIKAGTSDYWGQGTLVTVSS
VL: DIQMTQSPSSLSASVGDRVTITCRASQTISNFLNWYQQKPGKAPKLLIYAASRLQSWVPSRFTGSGSGTDFALTISSLQPEDFATYYCQQTFSPRITFGPGTKVEMKR
notes: also called 23G494 antibody
With B6, the binding result in [3], in assay [4] and in assay [5] was “no binding (tested: S/N<2.1)” each time.

B7: human anti-influenza A virus nucleoprotein monoclonal antibody 23G312 (antibody, V domains shown)
VH: QVQLVQSGGGLVQPGRSLRLSCIASGFSFDDYAMHWVRQIPGKGLEWVSGISWNSGARGYADSVKGRFTISRDNAKNSLYLQMNSLRVGDTAFYYCARDMGAGPNDYDTSGNYPLHLYGMDVWGHGTTVTVSS
VL: EIVLTQSPATLSVSPGDRATLSCRASQSVSDKLAWYQQKPGQAPRLLIYGAYTRATGTPARFSGSGSGTEFTLSITGLQAEDFAIYYCHQYNNWPLTFGGGTKVDIK
notes: also called 23G312 antibody
As for B7, the binding result in assay [3], in assay [4] and in [5] was “no binding (tested: S/N<2.1)” in each case.
